Laboratory results reported in patent publication US20040038894A1, “Compounds for modulating cell negative regulations and biological applications thereof” (INSTITUT NATIONAL DE LA SANTE ET DE LA RECHERCHE MEDICALE …, priority 1996, published 2004).
Where no end group is shown, it is not given here. [ ]: non-standard residue; d: D form. The star is where a group is joined. Biotin = O=C1N[C@H]2[C@H](CS[C@H]2CCCCC(=O)*)N1; pY = N[C@@H](Cc1ccc(OP(=O)(O)O)cc1)C(=O)O

T1: SHP-2 (Rattus norvegicus, UniProt P41499)
T1 construct: RBL-2H3 cells were lysed in NP-40 lysis buffer; endogenous in cells; host or cells: RBL-2H3
T1 sequence (P41499 1-593): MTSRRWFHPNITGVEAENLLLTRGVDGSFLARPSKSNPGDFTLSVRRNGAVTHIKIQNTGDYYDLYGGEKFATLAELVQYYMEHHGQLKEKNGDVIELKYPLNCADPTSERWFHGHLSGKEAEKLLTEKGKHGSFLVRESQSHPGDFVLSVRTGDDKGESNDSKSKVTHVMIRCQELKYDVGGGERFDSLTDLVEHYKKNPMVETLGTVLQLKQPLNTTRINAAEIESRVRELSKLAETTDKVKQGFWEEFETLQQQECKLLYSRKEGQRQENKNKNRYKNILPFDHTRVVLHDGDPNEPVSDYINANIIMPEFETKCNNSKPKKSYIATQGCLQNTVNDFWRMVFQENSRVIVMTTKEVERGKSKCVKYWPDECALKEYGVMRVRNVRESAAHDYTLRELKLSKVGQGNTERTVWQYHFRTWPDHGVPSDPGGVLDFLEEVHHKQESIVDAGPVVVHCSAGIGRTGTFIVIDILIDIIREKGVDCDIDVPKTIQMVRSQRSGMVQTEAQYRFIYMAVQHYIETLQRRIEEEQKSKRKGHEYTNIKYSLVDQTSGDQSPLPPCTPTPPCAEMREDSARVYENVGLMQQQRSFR

T2: SHIP (Rattus norvegicus, UniProt P97573)
T2 construct: RBL-2H3 cells were lysed in NP-40 lysis buffer; endogenous in cells; host or cells: RBL-2H3
T2 sequence (P97573 1-1190): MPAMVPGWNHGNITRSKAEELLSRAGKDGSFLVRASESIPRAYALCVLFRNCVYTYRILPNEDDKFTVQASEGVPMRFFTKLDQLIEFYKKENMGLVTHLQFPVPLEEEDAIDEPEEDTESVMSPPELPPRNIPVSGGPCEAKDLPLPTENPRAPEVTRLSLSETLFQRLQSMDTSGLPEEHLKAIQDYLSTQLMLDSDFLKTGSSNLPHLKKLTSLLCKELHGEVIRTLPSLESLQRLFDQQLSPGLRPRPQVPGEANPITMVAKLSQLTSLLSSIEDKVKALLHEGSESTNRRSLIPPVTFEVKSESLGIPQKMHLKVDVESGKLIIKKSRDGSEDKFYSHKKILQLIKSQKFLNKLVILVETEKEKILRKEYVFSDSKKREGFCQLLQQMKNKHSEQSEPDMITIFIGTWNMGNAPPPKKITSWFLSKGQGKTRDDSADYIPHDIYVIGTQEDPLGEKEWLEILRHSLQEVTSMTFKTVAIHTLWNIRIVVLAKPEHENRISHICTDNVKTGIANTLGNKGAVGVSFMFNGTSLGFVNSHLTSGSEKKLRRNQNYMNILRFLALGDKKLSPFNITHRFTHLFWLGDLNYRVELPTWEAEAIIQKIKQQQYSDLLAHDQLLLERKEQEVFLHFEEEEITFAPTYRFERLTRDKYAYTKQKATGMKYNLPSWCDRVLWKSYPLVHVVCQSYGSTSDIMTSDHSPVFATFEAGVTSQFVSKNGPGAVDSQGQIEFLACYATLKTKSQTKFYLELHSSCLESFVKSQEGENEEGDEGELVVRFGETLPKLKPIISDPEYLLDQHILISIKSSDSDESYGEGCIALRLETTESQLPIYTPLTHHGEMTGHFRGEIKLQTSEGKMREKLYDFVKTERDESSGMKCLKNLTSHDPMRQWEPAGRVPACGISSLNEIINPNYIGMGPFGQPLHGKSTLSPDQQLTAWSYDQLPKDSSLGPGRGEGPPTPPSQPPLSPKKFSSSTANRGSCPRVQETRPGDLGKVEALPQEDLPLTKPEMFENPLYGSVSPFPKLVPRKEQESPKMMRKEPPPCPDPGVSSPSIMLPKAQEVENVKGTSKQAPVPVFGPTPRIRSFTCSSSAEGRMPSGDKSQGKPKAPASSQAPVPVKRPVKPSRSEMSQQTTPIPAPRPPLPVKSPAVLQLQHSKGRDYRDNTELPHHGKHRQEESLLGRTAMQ

T3: SHIP polyinositol phosphatase from RBL-2H3 cell lysates (rat (cell line RBL-2H3), UniProt P97573 1-1190, limits assumed)
T3 construct: Detected by immunoblot with anti-SHIP antiserum
T3 sequence (looked up): T2 sequence (P97573 1-1190)


What was measured:
SHP-1 = target: T4, SHP-1 (Rattus norvegicus, UniProt P81718); assay: Cell lysate adsorption to peptides, anti-SHP-1 immunoblot; type: binding; details: RBL-2H3 lysates, peptide on streptavidin beads
T4 construct: endogenous in cells; host or cells: RBL-2H3
Description: (§1) Assay for cell lysate adsorption to peptides. RBL-2H3 cells were lysed in NP-40 lysis buffer (1% NP-40, 10 mM Tris-HCl, 150 mM NaCl, 1 mM EDTA, 1 mM PMSF, 10 mM iodoacetamide, 10 mM NaF, 10 mM Na pyrophosphate, 0.4 mM Na vanadate, 10 μg/ml leupeptine, 10 μg/ml aprotinine). Samples were either used directly (whole cell lysates: WCL), or subjected to affinity purification using peptides bound to beads. Biotinylated peptides (5 μg) were coupled to 50 μl streptavidin-agarose bead slurry (Sigma) for 1 hour at 4° C., prior to bead saturation with D-biotin (1 mg/ml) for 1 hour at 4° C. After 3 washes in lysis buffer, samples were separated on SDS-PAGE and transferred to nitrocellulose.
(§2) RBL-2H3 and ^35S-labeled IIA.1.6 cells were lysed in NP-40 lysis buffer (1% NP-40, 10 mM Tris-HCl, 150 mM NaCl, 1 mM EDTA, 1 mM PMSF, 10 mM iodoacetamide, 10 mM NaF, 10 mM Na pyrophosphate, 0.4 mM Na vanadate, 10 μg/ml leupeptin, 10 μg/ml aprotinin). Samples were either used directly (whole cell lysates: WCL), or subjected to affinity purification using peptides bound to beads. Biotinylated peptides (5 μg) were coupled to 50 μl streptavidin-agarose slurry beads for 1 hour at 4° C., prior to bead saturation with D-biotin (1 mg/ml) for 1 hour at 4° C. After 3 washes in lysis buffer, samples were fractionated on 8% SDS-polyacrylamide gel electrophoresis (SDS-PAGE) under reducing condition and transferred to nitrocellulose.
(§3) Results are illustrated by FIG. 15 showing the in vitro interaction between NKG2A ITIMs and SHP-1, SHP-2 and SHIP phosphatases. In FIG. 15, RBL-2H3 cell lysates (15A) or ^35S-labeled ILA.1.6 cell lysates (15B) were absorbed with indicated biotinylated peptides coupled to streptavidin-beads. Affinity-bound proteins (30×10^6 cells/sample) or whole cell lysates (WCL, 5×10^6 cells/sample) were resolved on 8% SDS-PAGE under reducing conditions prior to autoradiography (15B), or immunoblotting using anti-SHIP antiserum, anti-SHP-2 mAb and anti-SHP-1 mAbs (15A).

SHP-2 = target: T1, SHP-2; assay: Cell lysate adsorption to peptides, anti-SHP-2 immunoblot; type: binding; details: RBL-2H3 lysates, peptide on streptavidin beads
Description: as §1, §2, §3

SHIP = target: T2, SHIP; assay: Cell lysate adsorption to peptides, anti-SHIP immunoblot; type: binding; details: RBL-2H3 lysates, peptide on streptavidin beads
Description: as §1, §2, §3

[1] = target: T3, SHIP polyinositol phosphatase from …; assay: cell lysate adsorption to peptide beads, immunoblot (RBL-2H3), FIG. 15A
Description: In an attempt to characterize the function of these putative ITIMs, cell lysates were incubated with phosphorylated and nonphosphorylated synthetic peptides corresponding to the N-terminal and the C-terminal I/VxYxxL stretches present in NKG2A intracytoplasmic domain. Cell lysates absorbed to peptides were then assayed by immunoblotting for the presence of the phosphatases known to interact with phosphorylated ITIMs, i.e. the protein tyrosine phosphatases SHP-1 and SHP-2, as well as the polyinositol phosphate phosphatase, SHIP. In parallel, lysates adsorption were performed using control peptides corresponding to ITIMs present in Ig-like ITIM bearing receptors such as human KIRs (p58.2/CD158b, a receptor for HLA-Cw3) and mouse FcγRIIB, as well as in mouse lectin-like ITIM-bearing receptor, such as Ly-49A.
As shown in FIG. 15A (lanes 1 and 2), both N- and C-terminal I/VxYxxL stretches present in NKG2A associate with SHP-1 and SHP-2 in vitro, but no binding to SHIP was detected. Similar patterns of association were obtained using the phosphorylated ITIM peptides of […] and p58.2 KIR (FIG. 15A, lanes 3 to 5). In contrast, FcγRIIB phosphorylated ITIM peptides also associate with SHIP (FIG. 15A, lane 6). No association of phosphatases with nonphosphorylated peptides corresponding to FcγRIIB (FIG. 15A, lane 7) and NKG2A N- and C-terminal I/VxYxxL stretches was detected. When nonphosphorylated and phosphorylated peptides were used to adsorb lysates prepared from ³⁵S methionine/cysteine-labeled cells, only two bands around 64 and 68 kDa selectively associate with both phosphorylated NKG2A N- and C-terminal I/VxYxxL stretches, as compared to nonphosphorylated ones (FIG. 15B). The 64 and 68 kDa proteins which bind to phosphorylated NKG2A peptides correspond to SHP-1 and SHP-2 apparent molecular weight respectively, supporting the immunoblotting results. Therefore, our results define the two NKG2A I/VxYxxL stretches as ITIMs which appear to function similarly to other ITIMs present in inhibitory receptors for MHC class I molecules, i.e. KIRs and Ly-49 molecules. Using recombinant soluble tandem SH2 domains of SHP-1 and SHP-2, we confirmed by surface plasmon resonance that both NKG2A ITIM phosphopeptides directly associate with the SH2 domains of SHP-1 and SHP-2, but not with the SH2 domain of SHIP (FIG. 16).

T4 sequence (P81718 whole entry): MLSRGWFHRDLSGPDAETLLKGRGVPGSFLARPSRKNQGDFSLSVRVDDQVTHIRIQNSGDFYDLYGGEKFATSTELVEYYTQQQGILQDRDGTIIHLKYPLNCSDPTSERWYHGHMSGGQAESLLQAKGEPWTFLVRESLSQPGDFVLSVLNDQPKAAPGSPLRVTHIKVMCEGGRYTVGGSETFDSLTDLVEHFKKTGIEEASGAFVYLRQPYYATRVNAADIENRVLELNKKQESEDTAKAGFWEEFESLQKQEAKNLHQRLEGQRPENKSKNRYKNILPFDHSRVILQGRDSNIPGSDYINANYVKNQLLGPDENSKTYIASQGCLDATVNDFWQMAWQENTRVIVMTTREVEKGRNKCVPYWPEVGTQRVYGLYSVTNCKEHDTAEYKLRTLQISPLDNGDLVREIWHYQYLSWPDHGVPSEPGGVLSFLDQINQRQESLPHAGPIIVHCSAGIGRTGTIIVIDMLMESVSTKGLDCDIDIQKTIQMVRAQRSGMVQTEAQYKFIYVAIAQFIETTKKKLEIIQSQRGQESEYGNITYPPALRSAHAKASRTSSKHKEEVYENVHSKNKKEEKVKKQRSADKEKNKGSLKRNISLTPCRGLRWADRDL

| Molecule | binding of SHP-1 from cell lysates (SHP-1) | binding of SHP-2 from cell lysates (SHP-2) | binding of SHIP from cell lysates (SHIP) | binding of SHIP from cell lysates (SHIP; listed as FcγRIIB phosphorylated ITIM peptides) | binding result [1] |
| --- | --- | --- | --- | --- | --- |
| KTEAENTATY262SLLK (KTEAENTATYSLLK) [FcγRIIB 1-I260A, point mutant of FcγRIIB ITIM peptide] | abolishes the binding | abolishes the binding | not affected | – | – |
| KTEAENTITY262SLLK [FcγRIIB ITIM] (Biotin-KTEAENTITYSLLK) [murine FcγRIIB1/B2 ITIM peptide] | recruit | recruit | recruit | associate | – |

Next, values leading:

| binding of SHP-1 from cell lysates (SHP-1) | binding of SHP-2 from cell lysates (SHP-2) | binding of SHIP from cell lysates (SHIP) | binding of SHIP from cell lysates (SHIP; listed as FcγRIIB phosphorylated ITIM peptides) | binding result [1] | Molecule |
| --- | --- | --- | --- | --- | --- |
| abolishes the binding | abolishes the binding | – | – | – | DEQDPQEATY303AQLN (DEQDPQEATYAQLN) [p58.2.1-V301A, point mutant of KIR N-terminal ITIM peptide] |
| No association | No association | No association | – | – | KTEAENTITY262SLLK [nonphosphorylated peptides corresponding to FcγRIIB] |
| – | – | – | – | no binding | Biotin-MSEQEVT[pY]SMVRF (also called Ly-19A) [phosphorylated Ly-49A ITIM peptide] |
